# Reference: patent publication US9200265B2, “Anti-cocaine compositions and treatment” (priority 2006, dated 2015)
# Read-outs that look alike come from different tables or passages of the source.
# B1: CocE: wild-type cocaine esterase of Rhodococcus sp. MB 1, SEQ ID NO: 1, Accession No. AF173165 (protein)
# chain: MVDGNYSVASNVMVPMRDGVRLAVDLYRPDADGPVPVLLVRNPYDKFDVFAWSTQSTNWLEFVRDGYAVVIQDTRGLFASEGEFVPHVDDEADAEDTLSWILEQAWCDGNVGMFGVSYLGVTQWQAAVSGVGGLKAIAPSMASADLYRAPWYGPGGALSVEALLGWSALIGTGLITSRSDARPEDAADFVQLAAILNDVAGAASVTPLAEQPLLGRLIPWVIDQVVDHPDNDESWQSISLFERLGGLATPALITAGWYDGFVGESLRTFVAVKDNADARLVVGPWSHSNLTGRNADRKFGIAATYPIQEATTMHKAFFDRHLRGETDALAGVPKVRLFVMGIDEWRDETDWPLPDTAYTPFYLGGSGAANTSTGGGTLSTSISGTESADTYLYDPADPVPSLGGTLLFHNGDNGPADQRPIHDRDDVLCYSTEVLTDPVEVTGTVSARLFVSSSAVDTDFTAKLVDVFPDGRAIALCDGIVRMRYRETLVNPTLIEAGEIYEVAIDMLATSNVFLPGHRIMVQVSSSNFPKYDRNSNTGGVIAREQLEEMCTAVNRIHRGPEHPSHIVLPIIKR
# modifications: Rhodococcus sp. MB1
# Tests used:
# [1] = Time-dependent inactivation of CocE in vitro (incubation at temperature, then activity)
# Protocol: For time-dependent inactivation of CocE in vitro, purified CocE enzyme (at 250 ng/ml) was incubated in assay buffer in the absence of cocaine at 37° C. for various times. Following incubation at 37° C. the samples were placed on ice. To assess the effect of temperature on CocE activity, samples were incubated with (−) cocaine at various concentrations as indicated at a final enzyme concentration of 125 ng/ml. The rate of decay of (−)-cocaine at A240 was measured on a multiplate reader.
# [2] = Decay of CocE activity in plasma at 37° C. or after intravenous administration into a mouse; assay type: in vitro ADME; conditions: incubation in plasma at 37° C., or after intravenous administration into a mouse
# [3] = system: CocE antibodies; assay: Direct ELISA specific for CocE antibodies in serum of mice; assay type: in vivo, mouse
# Protocol: CocE can be used in incomplete Freund's adjuvant (IFA) to immunize mice (see Table 4). A direct ELISA specific for CocE antibodies was set up by a standard protocol. CocE was used (1 ug/ml) to coat a 96-well micro-titer plate using a borate buffered saline (1.5 M NaCl, 0.5 M H3BO3, 1.0 M NaOH) to resuspend the cocaine esterase (50 uL/well). The coating plates was left overnight at 4 C. The coating buffer was removed the following morning and the plates blocked with 2% normal goat serum in PBS for 1 hr at 37 C and washed 3 times. Serum from the various groups of mice was serially diluted in 50 μL of PBS in the wells in a range of 10^2 to […] and run in duplicate. The plates were covered and incubated for 30 minutes at 37 C. Subsequently, the plates were washed 3 times and 50 μL/well of Goat anti-mouse IgG peroxidase labeled antibody diluted 1:400. The plates were then washed 3 times and 100 μL peroxidase substrate solution (OPD dissolved in citratelphosphate buffer) was added to each well. After a 5-10 minute incubation (based upon color development in the positive controls) the reaction was stopped using 3M H2SO4 (50 μL/well). […] Positive controls were derived by immunizing Balb/c mice with 100 μg in 100 μL of Cocaine esterase emulsified in incomplete Freund's adjuvant […] by intraperitoneal (IP) injection. In Positive 1 group the serum was isolated from 2 week immunized mice. In Positive 2 group immunized mice were boosted using 100 μg in 100 μL by IP injection at 2 weeks post-primary immunization and the serum collected after an additional week (3 week post-primary).
# [4] = Thermal stability: preincubation at 37° C., activity measured at RT (25° C.); assay type: physicochemical; conditions: wild type
# Protocol: Thermally stable mutant CocE polypeptides were identified by determining 1/2 of the mutant CocE polypeptides. Briefly, enzymes were preincubated at 37° C. for varying times. Activity measurements were determined at RT (25° C.). Mutant enzymes with 1/2 of greater than 12 minutes (the 1/2 of wild type CocE) were considered thermally stable (See, e.g., FIG. 27 and Table 7).
# [5] = cocaethylene; cited from earlier work
# [6] = cited from earlier work
# [7] = system: WIN 35065-2 induced toxicity; assay: WIN 35065-2 induced lethality in rats; conditions: 1.0 mg CocE i.v. one minute after 560 mg/kg WIN-35065-2 i.p.
# [8] = Cocaine spectrophotometric assay (240 nm), Michaelis-Menten kinetics
# [9] = system: cocaine-induced lethality; assay: Cocaine toxicity in mice, incl. repeated CocE doses; assay type: in vivo, mouse
# From the text: The animal toxicity model was similar to that described previously, except as described. Male NIH Swiss mice were used. For tail intravenous injection, mice are placed in a small restraint chamber that exposes their tail. A heat lamp with an infrared, 250 w bulb is placed about 4 inches from the tail, and left for a couple of minutes. The tail is then cleansed with an alcohol wipe and a 30 G ½ precision glide needle (Fisher Scientific), is inserted into one of the side veins for infusion. To verify whether the needle is in the vein a small amount of drug is infused, if in the correct location the solution should infuse easily without any indication of an incorrect subcutaneous location, which appears white at the site of injection. For intravenous catheterization, Male NIH Swiss mice are anesthetized with ketamine 100 mg/kg and xylazine 10 mg/kg co-administered i.p. When mice are no longer responsive to paw pressure, the neck is shaved and prepped by alternating Betadine and alcohol wipes. Under clean conditions, a right transverse neck incision is made and the external jugular vein is isolated. A catheter is inserted into the vein with the aid of a dissecting microscope to the level of the right atrium, and is secured in the vein with nylon, 4-0 sutures and tissue adhesive, 3M Vetbond (3M Animal Care Products, St. Paul, Minn.). The catheters are a short length of Tygon tubing with an inner diameter of 0.010 in. and an outer diameter of 0.030 in. (Small Parts, Inc., Miami Lakes, Fla.). A small incision is made in the middle of the animal's back, and a trocar inserted subcutaneously to exit at the ventral incision site. The catheter is then pulled through the trocar and brought out the animal's back where it is held in place with nylon suture material and the tissue adhesive. A short piece of steel wire with a diameter of 0.011 in. (Small Parts, Inc., Miami Lakes, Fla.) is inserted into the end of the catheter. The ventral incision is closed with 4-0 Vicryl suture material and the mouse placed under a heat lamp for recovery. Approximately an hour later, the mouse is returned to its home cage.
# Mice that survived a first administration of the combination of 0.32 mg CocE and 320 mg/kg cocaine were given this combination again, 14 days following the initial administration.
# [10] = purified wild-type, cocaine, PBS pH 7.4
molecule,measurement,setting,value
B1,t1/2 of CocE,[1]; at 4° C.,greater than 6 months
same,t1/2 of CocE,[1]; at 37° C.,approximately 15 minutes
same,decay of CocE activity,[2],> 50%
same,Titer (log10 dilution +/− SE),"[3]; Challenged and Treated (3x), CocE given with cocaine",3.33 +/− 0.333
same,Titer (log10 dilution +/− SE),"[3]; Challenged and Treated (4x), CocE given with cocaine",3.5 +/− 0.5
same,antibody titers,[3]; CocE i.v. during cocaine challenges,detectable but relatively low titers
same,antibody titer,[3]; CocE/IFA with an additional boost,10^6
same,Titer (log10 dilution +/− SE),"[3]; Positive 1 (n = 3) 2 weeks, Immunized (IFA/IP)",5
same,Titer (log10 dilution +/− SE),"[3]; Positive 2 (n = 3) 3 weeks, Immunized/Boost (IFA/IP)",6
same,antibody titer,[3]; immunized once with CocE/IFA,10^5
same,1/2 (t1/2) at 37° C.,[4],12 min
same,Kcat,[5],9.4 s⁻¹
same,Km,[5],1.6 µM
same,Kcat,[6]; against (-) cocaine,7.8 s⁻¹
same,Km,[6]; against (-) cocaine,0.64 µM
same,Km,"[6]; purified enzyme, cocaine",0.64 µM
same,kcal (Michaelis-Menten kinetics),"[6]; purified enzyme, cocaine",7.2 s⁻¹
same,lethal effect of WIN 35065-2 under treatment with CocE,[7],not overcome
same,Km,[8]; 40 min @ 37° C.,12.3 µM
same,Km,[8]; no preincubation,71.8 µM
same,Kcat,[8]; [10],approx. 500 min^−1
same,Km,[8]; [10],~2 µM
same,survival on second administration,"[9]; 0.32 mg CocE and 320 mg/kg cocaine, 14 days following the initial administration",All of the mice survived
same,survival on third administration,"[9]; 0.32 mg CocE and 320 mg/kg cocaine, 21 days following the first dose",All mice also survived
same,time to death (average),"[9]; 1.0 gm/kg cocaine plus 1.0 mg of CocE, mice",28 min
same,shift in the potency of cocaine in producing death,"[9]; both 0.32 and 1.O 'mg/kg cocaine' as printed, mice",dramatic shift to the right
